Laboratory results taken from article PMC8122247, “Rational Design of Resveratrol O-methyltransferase for the Production of Pinostilbene” (International Journal of Molecular Sciences, 2021).
Positions count from the first letter of the chain named. In names and notes the source's numbering stands.

B1: VvROMT variant W20A (enzyme, Vitis vinifera, UniProt B6VJS4 1-357, looked up)
chain: MDLANGVISAELLHAQAHVANHIFNFIKSMSLKCAIQLGIPDIIHNHGKPMTLPELVAKLPVHPKRSQCVYRLMRILVHSGFLAAQRVQQGKEEEGYVLTDASRLLLMDDSLSIRPLVLAMLDPILTKPWHYLSAWFQNDDPTPFHTAYERSFWDYAGHEPQLNNSFNEAMASDARLLTSVLLKEGQGVFAGLNSLVDVGGGTGKVAKAIANAFPHLNCTVLDLSHVVAGLQGSKNLNYFAGDMFEAIPPADAILLKWILHDWSNEECVKILKRCREAIPSKENGGKVIIIDMIMMKNQGDYKSTETQLFFDMTMMIFAPGRERDENEWEKLFLDAGFSHYKITPILGLRSLIEVYP
notes: resveratrol O-methyltransferase (VvROMT), Vitis vinifera, GenBank FM178870, with W20A; made by Gibson Assembly on pET25-GB1-ROMT; source: E. coli BL21 (DE3), purified (IMAC HisTrap FF, TEV cleavage, second IMAC); not shown: His tag (on GB1), N-terminal, cleaved; GB1, N-terminal, cleaved
B2: VvROMT variant F24A (enzyme, Vitis vinifera, UniProt B6VJS4 1-357, looked up)
chain: B1 chain with A20W, F24A
notes: resveratrol O-methyltransferase (VvROMT), Vitis vinifera, GenBank FM178870, with F24A; made by Gibson Assembly on pET25-GB1-ROMT; source: E. coli BL21 (DE3), purified (IMAC HisTrap FF, TEV cleavage, second IMAC); not shown: His tag (on GB1), N-terminal, cleaved; GB1, N-terminal, cleaved

Target: the molecule itself
Test: SEC; Superdex 75 10/300 GL, 50 mM Tris-HCl pH 7.5, flow 0.5 mL/min; protein at 2 µg/µL, 150 to 300 µL; column calibrated with LMW Gel Filtration kit

| Protein | stoichiometry N |
| --- | --- |
| B1 | 2 |
| B2 | 2 |
